{"source": "patent US20250250350A1", "key": {"[1]": {"biological_target": "MSLN-Bio (human) (UniProt Q13421)", "sequence (Q13421 other isoform, or with tags, fused parts or gaps limits assumed)": "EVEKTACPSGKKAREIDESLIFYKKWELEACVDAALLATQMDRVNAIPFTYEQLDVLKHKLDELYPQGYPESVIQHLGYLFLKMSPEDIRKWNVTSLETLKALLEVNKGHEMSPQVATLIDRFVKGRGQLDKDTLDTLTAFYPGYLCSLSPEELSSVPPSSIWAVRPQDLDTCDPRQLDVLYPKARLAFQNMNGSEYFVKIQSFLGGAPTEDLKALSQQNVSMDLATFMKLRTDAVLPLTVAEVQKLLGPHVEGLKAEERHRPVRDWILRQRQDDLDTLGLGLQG", "assay": "flow cytometry, lentivirally transduced primary T cells, stained with ALPG-AF647 (PrimeR axis) and MSLN-Bio / streptavidin-PE (CAR axis)"}, "[2]": {"biological_target": "ALPG-AF647 (human) (UniProt P10696)", "sequence (P10696 20-503 limits assumed)": "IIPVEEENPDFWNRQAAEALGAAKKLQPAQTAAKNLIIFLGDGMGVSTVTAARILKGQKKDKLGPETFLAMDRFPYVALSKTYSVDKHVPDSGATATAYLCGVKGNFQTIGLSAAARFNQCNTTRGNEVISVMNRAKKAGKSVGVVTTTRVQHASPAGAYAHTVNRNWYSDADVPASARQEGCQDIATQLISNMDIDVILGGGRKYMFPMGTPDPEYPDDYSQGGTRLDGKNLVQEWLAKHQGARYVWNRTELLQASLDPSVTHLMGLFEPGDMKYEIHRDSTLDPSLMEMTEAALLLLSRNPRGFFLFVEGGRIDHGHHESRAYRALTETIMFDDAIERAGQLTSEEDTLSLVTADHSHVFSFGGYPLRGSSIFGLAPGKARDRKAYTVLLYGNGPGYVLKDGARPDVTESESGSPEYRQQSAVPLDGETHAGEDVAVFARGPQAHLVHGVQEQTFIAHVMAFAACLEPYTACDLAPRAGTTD", "assay": "flow cytometry, lentivirally transduced primary T cells without PrimeR, stained with ALPG-AF647 (PrimeR axis) and MSLN-Bio / streptavidin-PE (CAR axis)"}}, "data": [{"substance": "SS1 CAR", "values": [{"measurement": "% of cells PrimeR+ CAR+ (upper right quadrant)", "setting": "[1]", "result": 0.59, "unit": "%"}, {"measurement": "% of cells PrimeR- CAR+ (upper left quadrant)", "setting": "[1]", "result": 59.2, "unit": "%"}, {"measurement": "% of cells PrimeR+ CAR+ (upper right quadrant)", "setting": "[2]", "result": 0.59, "unit": "%"}, {"measurement": "% of cells PrimeR+ CAR- (lower right quadrant)", "setting": "[2]", "result": 0.079, "unit": "%"}]}]}
